Article PMC4756693, “Structural analysis of disease-related TDP-43 D169G mutation: linking enhanced stability and caspase cleavage efficiency to protein accumulation”

Molecular target: TDP-43 RRM1 (human, UniProt Q13148 101-191)
Assay: X-ray crystallography; crystals at pH 5.5, PEG 3350, ammonium acetate; Co-crystallization, protein:DNA 1:1.2; protein in 50 mM HEPES pH 7.5, 100 mM NaCl, 10 mM bME; hanging drop at room temperature (stated for RRM1/DNA). (TG)15 Kd
Details: protein: recombinant; tags: N-terminal His; single strand; 8 and 9 nt modelled in the two RRM1 complexes

Sequence of TDP-43 RRM1 (Q13148 101-191): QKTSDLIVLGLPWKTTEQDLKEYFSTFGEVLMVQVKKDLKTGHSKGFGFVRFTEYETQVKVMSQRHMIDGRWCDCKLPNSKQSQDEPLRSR

GTTGAGCGTT (ssDNA, none) [10-nt ssDNA]
binding result: binds
